Data on two molecules can be found in paper PMC6475481 (Journal of the American Chemical Society, 2019).

The term stoichiometry N denotes the number of molecules, sites or subunits per partner or assembly.

One data set concerns the target T1, AqpZ, P60844.
T1 chain: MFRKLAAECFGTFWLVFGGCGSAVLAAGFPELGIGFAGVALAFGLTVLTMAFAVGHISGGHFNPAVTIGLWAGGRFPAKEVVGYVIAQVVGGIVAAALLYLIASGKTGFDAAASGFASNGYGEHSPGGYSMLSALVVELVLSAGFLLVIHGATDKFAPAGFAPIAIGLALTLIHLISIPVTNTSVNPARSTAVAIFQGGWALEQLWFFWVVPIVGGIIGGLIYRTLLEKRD
As to the kind of experiment: native MS. The conditions noted are these: remark: other sources report otherwise.

The data set “native MS” concerns the molecule itself. As to the kind of experiment: native MS.

B1: AqpZ, P60844 1-231 (natural protein)
chain: T1 chain
B1 gave a stoichiometry N in the data set with AqpZ, P60844 of 4.

B2: AmtB (natural protein)
chain: VADKADNAFMMICTALVLFMTIPGIALFYGGLIRGKNVLSMLTQVTVTFALVCILWVVYGYSLAFGEGNNFFGNINWLMLKNIELTAVMGSIYQYIHVAFQGSFACITVGLIVGALAERIRFSAVLIFVVVWLTLSYIPIAHMVWGGGLLASHGALDFAGGTVVHINAAIAGLVGAYLIGKRVGFGKEAFKPHNLPMVFTGTAILYIGWFGFNAGSAGTANEIAALAFVNTVVATAAAILGWIFGEWALRGKPSLLGACSGAIAGLVGVTPACGYIGVGGALIIGVVAGLAGLWGVTMLKRLLRVDDPCDVFGVHGVCGIVGCIMTGIFAASSLGGVGFAEGVTMGHQLLVQLESIAITIVWSGVVAFIGYKLADLTVGLRVPEEQEREGLDVNSHGENAYNA
Turning to B2, the “stoichiometry N” value in the data set “native MS” was 3.
